Measured values as given in patent EP1655308B1, “Adducts of soluble ovalbumin with trivalent iron polyalcohol complexes and method to produce them” (Tedec-Meiji Farma, S.A., priority 2004, dated 2006).

Test: Solubility of the lyophilised adduct at 1 %
Format: physicochemical
Conditions: lyophilised powder, 1 % solution
Procedure: a) Iron - manitol complex: 31.5 g of FeCl3·6H2O are dissolved jointly with 7.9 g of manitol in 400 ml of water. A solution of 18 g of NaOH in 48 ml of water is added under vigorous stirring. It is heated to 95° C, letting it spontaneously cool down to ambient temperature. b) Treated ovalbumin: 37.50 g of commercial ovalbumin in powder form are dispersed under vigorous stirring in 180 ml of water. A solution of 30 g of NaOH in 550 ml of water is heated separately to 65° C. The protein dispersion is added to the alkaline solution and is digested at 65° C for 15 minutes, with the pH being subsequently adjusted to a value between 8.5 - 10 with 6M HCl. While keeping the solution at 50° C and pH 8.5 - 10, Esperase® (NOVO-NORDISK) is added in a quantity of 1 ‰ of the initial albumin (37.5 mg), proteolytically digesting it, under gentle stirring, for 2 hours at 50° C without any pH correction. Once this time has elapsed, the spontaneous pH is 8.5. The solution is heated to 80° C in order to deactivate the remaining enzymatic activity, the pH is adjusted to 10 with 10M NaOH and, when the temperature goes down to 65° C, 2 ml/l of 30 % w/v H2O2 are added. […]

Adduct between treated ovalbumin and iron (III) - manitol complex [Example 1]
1 % solubility: limpid
